Substitutions are numbered along the chain they refer to. Numbers in names are those of the source.
B1: MBP-HJURP^1–80 (domain or fragment)
chain: MLGTLRAMEGEDVEDDQLLQKLRASRRRFQRRMQRLIEKYNQPFEDTPVVQMATLTYETPQGLRIWGGRLIKERNEGEIQ
B2: MBP-HJURP^1–80/W66A (domain or fragment)
chain: B1 chain with W66A
B3: MBP-HJURP^1–62 (domain or fragment)
chain: MLGTLRAMEGEDVEDDQLLQKLRASRRRFQRRMQRLIEKYNQPFEDTPVVQMATLTYETPQG

Legend:
Experiment in all cases: SEC
[1] = target: (CENP-A^S68Q/H4)2 (human, UniProt P49450 1-140; P62805 1-103, S68Q)
[2] = target: (CENP-A/H4)2 heterotetramer (human, UniProt P49450 1-140; P62805 1-103)
[3] = target: CENP-A^H115A/L128A/H4 heterodimer (human, UniProt P49450 1-140; P62805 1-103, H115A | L128A)
Sequence of CENP-A^H115A/L128A/H4 heterodimer (P49450 whole entry H115A/L128A, one chain of several): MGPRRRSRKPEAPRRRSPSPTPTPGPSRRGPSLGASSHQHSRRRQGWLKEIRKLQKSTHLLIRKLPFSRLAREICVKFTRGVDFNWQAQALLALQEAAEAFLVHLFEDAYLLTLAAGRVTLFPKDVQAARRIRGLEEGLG

Sequence of (CENP-A/H4)2 heterotetramer (P49450 whole entry, one chain of several): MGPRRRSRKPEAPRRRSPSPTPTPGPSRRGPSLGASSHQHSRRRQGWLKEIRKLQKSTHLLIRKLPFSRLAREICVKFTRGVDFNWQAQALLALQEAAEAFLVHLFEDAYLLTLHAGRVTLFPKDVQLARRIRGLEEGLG
Sequence of (CENP-A^S68Q/H4)2 (P49450 whole entry S68Q, one chain of several): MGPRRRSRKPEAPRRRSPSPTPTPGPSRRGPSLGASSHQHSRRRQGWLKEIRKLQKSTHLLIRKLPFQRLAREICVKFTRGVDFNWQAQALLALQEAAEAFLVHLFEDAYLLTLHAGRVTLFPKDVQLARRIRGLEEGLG

Binder | binding result [1] | binding result [2] | binding result [3]
B1 | binds | binds | binds
B2 |  | binds | 
B3 |  | binds | 
